Experimental data: US20140087995A1 (published 2014)
Numbered stars: 1 amine (or outer) side, 2 acyl side, 3 side chain; on linkers, the order of the positions; unused ones are H or OH. Bridge positions count the residues as written; N and C are the ends. Side chains are listed from the residue outwards. Ends that are not written are not given here. * marks the point of attachment. C20 diacid = O=C(O)CCCCCCCCCCCCCCCCCCC(=O)*; γGlu = O=C(O)[C@H](CCC(=O)[*:2])N[*:1]; AEEA = NCCOCCOCC(=O)O

T1: human calcitonin receptor (human, UniProt P30988 25-474)
T1 construct: whole, on cells; Membranes of stably transfected cells; also called hCTR; hCT
T1 sequence (looked up): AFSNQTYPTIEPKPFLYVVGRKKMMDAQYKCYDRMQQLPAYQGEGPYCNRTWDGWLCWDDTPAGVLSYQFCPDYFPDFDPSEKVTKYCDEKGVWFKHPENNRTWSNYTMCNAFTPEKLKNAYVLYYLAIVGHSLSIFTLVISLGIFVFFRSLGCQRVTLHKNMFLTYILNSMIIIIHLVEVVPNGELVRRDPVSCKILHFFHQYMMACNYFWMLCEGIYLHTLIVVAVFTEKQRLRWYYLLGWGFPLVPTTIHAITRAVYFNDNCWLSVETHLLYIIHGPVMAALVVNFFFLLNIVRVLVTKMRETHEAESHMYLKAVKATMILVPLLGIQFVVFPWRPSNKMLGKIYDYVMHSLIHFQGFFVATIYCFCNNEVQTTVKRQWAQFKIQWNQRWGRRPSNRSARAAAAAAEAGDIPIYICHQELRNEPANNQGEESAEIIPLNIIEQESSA

T2: rat calcitonin receptor (rat, UniProt P32214 25-516)
T2 construct: whole, on cells; Membranes of transiently transfected BHK tk'ts 13 cells; also called rCTR; rat calcitonin (a) receptor
T2 sequence (looked up): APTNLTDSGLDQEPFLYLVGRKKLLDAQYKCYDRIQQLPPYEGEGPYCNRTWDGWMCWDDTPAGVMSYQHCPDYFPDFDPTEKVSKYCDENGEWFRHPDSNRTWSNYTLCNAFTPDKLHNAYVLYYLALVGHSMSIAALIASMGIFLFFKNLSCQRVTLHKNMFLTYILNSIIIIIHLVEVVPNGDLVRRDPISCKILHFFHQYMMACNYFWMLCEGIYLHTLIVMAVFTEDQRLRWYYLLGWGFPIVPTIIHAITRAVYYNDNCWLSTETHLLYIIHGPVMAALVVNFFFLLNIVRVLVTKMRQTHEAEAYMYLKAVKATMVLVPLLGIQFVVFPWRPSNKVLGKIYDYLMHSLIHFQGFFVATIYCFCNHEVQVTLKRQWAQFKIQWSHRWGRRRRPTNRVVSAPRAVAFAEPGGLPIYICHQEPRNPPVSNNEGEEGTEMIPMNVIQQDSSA

T3: rat amylin receptor (rat calcitonin receptor + rat RAMP 3) (rat, UniProt P32214 25-516; Q9JJ73 23-147)
T3 construct: whole, on cells; Membranes of transiently transfected BHK tk'ts 13 cells; also called rAmylin-R; rat amylin 3(a) receptor
T3 sequence (looked up) 1: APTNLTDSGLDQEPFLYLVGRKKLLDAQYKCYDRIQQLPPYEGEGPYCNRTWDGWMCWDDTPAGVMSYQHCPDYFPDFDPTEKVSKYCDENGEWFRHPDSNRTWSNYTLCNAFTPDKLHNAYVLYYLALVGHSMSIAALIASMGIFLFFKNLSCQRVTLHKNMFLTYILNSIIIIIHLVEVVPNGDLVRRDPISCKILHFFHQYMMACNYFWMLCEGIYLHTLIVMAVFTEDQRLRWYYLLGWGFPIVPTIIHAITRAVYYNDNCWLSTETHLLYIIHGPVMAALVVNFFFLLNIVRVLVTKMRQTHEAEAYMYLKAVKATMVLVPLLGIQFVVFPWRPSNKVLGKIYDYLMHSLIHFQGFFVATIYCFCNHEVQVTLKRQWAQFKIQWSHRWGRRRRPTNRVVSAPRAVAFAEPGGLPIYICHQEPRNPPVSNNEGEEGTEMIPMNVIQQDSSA
T3 sequence (looked up) 2: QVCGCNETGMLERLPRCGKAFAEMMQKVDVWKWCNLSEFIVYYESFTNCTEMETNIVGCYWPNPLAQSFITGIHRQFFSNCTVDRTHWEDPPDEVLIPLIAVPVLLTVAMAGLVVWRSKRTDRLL

T4: rat amylin receptor (rat calcitonin receptor + rat RAMP 3) (rat, UniProt P32214 25-516; Q9JJ73 23-147)
T4 construct: whole, on cells; also called rAmylin-R; rat amylin 3(a) receptor
T4 sequence (looked up) 1: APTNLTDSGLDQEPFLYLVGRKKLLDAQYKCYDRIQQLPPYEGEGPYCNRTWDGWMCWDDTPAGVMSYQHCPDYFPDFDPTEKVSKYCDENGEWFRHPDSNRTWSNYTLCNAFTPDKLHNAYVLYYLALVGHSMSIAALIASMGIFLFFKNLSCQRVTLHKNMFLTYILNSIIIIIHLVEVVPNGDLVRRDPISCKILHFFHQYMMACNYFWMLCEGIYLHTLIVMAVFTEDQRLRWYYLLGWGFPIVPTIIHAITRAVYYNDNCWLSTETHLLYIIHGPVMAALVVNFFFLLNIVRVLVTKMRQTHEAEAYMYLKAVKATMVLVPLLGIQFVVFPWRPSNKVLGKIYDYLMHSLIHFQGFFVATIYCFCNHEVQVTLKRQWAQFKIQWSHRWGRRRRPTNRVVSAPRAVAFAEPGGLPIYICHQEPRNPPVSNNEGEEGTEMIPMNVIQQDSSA
T4 sequence (looked up) 2: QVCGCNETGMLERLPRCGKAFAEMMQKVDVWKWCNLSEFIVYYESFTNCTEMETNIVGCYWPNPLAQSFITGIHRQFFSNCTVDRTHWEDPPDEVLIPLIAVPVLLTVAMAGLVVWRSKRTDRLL

T5: rat calcitonin receptor (rat, UniProt P32214 25-516)
T5 construct: whole, on cells; also called rCTR; rat calcitonin (a) receptor
T5 sequence (looked up): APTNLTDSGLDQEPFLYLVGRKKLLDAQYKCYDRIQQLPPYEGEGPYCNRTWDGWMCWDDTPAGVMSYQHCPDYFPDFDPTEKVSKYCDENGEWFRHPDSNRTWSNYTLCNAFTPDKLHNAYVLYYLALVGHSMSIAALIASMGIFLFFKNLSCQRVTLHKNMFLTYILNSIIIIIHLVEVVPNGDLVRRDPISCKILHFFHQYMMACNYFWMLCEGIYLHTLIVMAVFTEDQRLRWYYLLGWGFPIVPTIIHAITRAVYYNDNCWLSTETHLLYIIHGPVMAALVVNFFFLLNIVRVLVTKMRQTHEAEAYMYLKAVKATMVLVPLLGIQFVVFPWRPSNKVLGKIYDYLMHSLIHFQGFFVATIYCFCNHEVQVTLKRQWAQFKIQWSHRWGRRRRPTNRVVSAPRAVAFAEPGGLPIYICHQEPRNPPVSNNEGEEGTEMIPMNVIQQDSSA

T6: human calcitonin receptor (human, UniProt P30988 25-474)
T6 construct: whole, on cells; also called hCTR; hCT
T6 sequence (looked up): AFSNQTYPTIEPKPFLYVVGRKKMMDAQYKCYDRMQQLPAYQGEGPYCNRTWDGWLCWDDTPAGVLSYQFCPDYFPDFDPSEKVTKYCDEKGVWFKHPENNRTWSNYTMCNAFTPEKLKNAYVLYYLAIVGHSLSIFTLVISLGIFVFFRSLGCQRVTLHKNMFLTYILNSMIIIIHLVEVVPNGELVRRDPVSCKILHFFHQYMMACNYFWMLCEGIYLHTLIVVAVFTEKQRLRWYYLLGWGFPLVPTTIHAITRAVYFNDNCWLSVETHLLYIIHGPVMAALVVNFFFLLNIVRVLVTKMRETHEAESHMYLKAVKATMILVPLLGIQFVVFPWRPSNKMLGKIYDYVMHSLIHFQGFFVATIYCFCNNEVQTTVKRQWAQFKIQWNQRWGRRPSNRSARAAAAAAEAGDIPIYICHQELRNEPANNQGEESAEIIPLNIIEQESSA


Columns and labels:
[1] = target: T1, human calcitonin receptor; assay: ratio of IC50 on human calcitonin receptor to IC50 on human amylin receptor (reference m42), SPA competition
Procedure: The resulting pellet was resuspended, homogenized and centrifuged (20.000 rpm, 15 min) in a buffer containing 20 mM Na-HEPES and 0.1 mM EDTA (pH 7.4, buffer 2). The resulting pellet was resuspended in buffer 2 and protein concentration was measured (BCA protein Assay, Pierce). The homogenate was kept cold during the whole procedure. The membranes were kept at −80° C. until use. The assay was performed in a 384 well Optiplate (PerkinElmer) in a total volume of 40 ul. Membranes were mixed with SPA beads. Final concentration of membranes 35 ng/μL final and SPA beads was 0.05 mg/well. Test-compounds were dissolved in DMSO and further diluted in assay buffer (50 mM Hepes, pH 7.4, 1 mM CaCl2, 5 mM MgCl₂, 0.1% OA and 0.02% Tween20). […] The final mixture was incubated with shaking at 400 rpm for 120 min at 25° C. prior to centrifugation (1500 rpm, 10 min). Samples were analyzed on TopCounter™ (Packard). The IC₅₀ was calculated using (one site binding competition analysis) GraphPad Prism5 as a measure of receptor affinity.
Membranes were prepared in the following way; the cells were rinsed with PBS and incubated with Versene for approximately 5 min before harvesting. The cells were flushed with PBS and the cell-suspension was centrifuged for 5 min at 1000 rpm. Cells were homogenized (Ultrathurrax) in a buffer containing 20 mM Na-HEPES and 10 mM EDTA (pH 7.4) and centrifuged at 20.000 rpm for 15 min. The resulting pellet was resuspended, homogenized and centrifuged (20.000 rpm, 15 min) in a buffer containing 20 mM Na-HEPES and 0.1 mM EDTA (pH 7.4, buffer 2). The resulting pellet was resuspended in buffer 2 and protein concentration was measured (BCA protein Assay, Pierce). The homogenate was kept cold during the whole procedure. The membranes were kept at −80° C. until use. Assay was performed in a 384 well Optiplate (PerkinElmer) in a total volume of 40 ul. Membranes were mixed with SPA beads.

rat calcitonin receptor [2] = target: T2, rat calcitonin receptor; assay: ratio of IC50 on rat calcitonin receptor to IC50 on rat amylin receptor (reference m40)
[3] = target: T3, rat amylin receptor (rat calcitonin …); assay: SPA competition with 125I-rat amylin on membranes of BHK tk'ts 13 cells with rat calcitonin receptor + rat RAMP3 (Assay VI)
rat calcitonin receptor [4] = target: T2, rat calcitonin receptor; assay: SPA competition with 125I-calcitonin on membranes of BHK tk'ts 13 cells with rat calcitonin receptor (Assay VIII)
[5] = target: T4, rat amylin receptor (rat calcitonin …); assay: SPA competition with 125I-rat amylin, membranes of BHK cells with rat calcitonin receptor + rat RAMP3 (Assay VI)
rat calcitonin receptor [6] = target: T5, rat calcitonin receptor; assay: ratio of binding IC50s: rat calcitonin receptor over rat amylin receptor (reference)
rat calcitonin receptor [7] = target: T5, rat calcitonin receptor; assay: SPA competition with 125I-calcitonin, membranes of BHK cells with rat calcitonin receptor (Assay VIII)
[8] = target: T6, human calcitonin receptor; assay: ratio of binding IC50s: human calcitonin receptor over human amylin receptor (reference)
Procedure, shortened: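 Competition binding by SPA uses membrane preparations (35 ng/μL final) in pH 7.4 Hepes buffer with 1 mM CaCl2 and 5 mM MgCl₂. Incubation lasts 120 min at 25° C, and IC₅₀ comes from one-site fitting.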

Ratio hCT/hAmylin binding [1]	Ratio rCT/rAmylin binding (rat calcitonin receptor [2])	IC50 [3]	IC50 (rat calcitonin receptor [4])	IC50 [5]	Ratio rCT/rAmylin binding (rat calcitonin receptor [6])	IC50 (rat calcitonin receptor [7])	Ratio hCT/hAmylin binding [8]	Binder
101	76.3	0.386 nM	29.4 nM					K([AEEA-C20 diacid])CNTATCATQRLANFLRHSSPNFGAIPSSTNVGHNTY-NH2 (disulfide 2-7; N-terminus assumed; SMILES CC[C@H](C)[C@H](NC(=O)[C@H](C)NC(=O)CNC(=O)[C@H](Cc1ccccc1)NC(=O)[C@H](CC(N)=O)NC(=O)[C@@H]1CCCN1C(=O)[C@H](CO)NC(=O)[C@H](CO)NC(=O)[C@H](Cc1c[nH]cn1)NC(=O)[C@H](CCCNC(=N)N)NC(=O)[C@H](CC(C)C)NC(=O)[C@H](Cc1ccccc1)NC(=O)[C@H](CC(N)=O)NC(=O)[C@H](C)NC(=O)[C@H](CC(C)C)NC(=O)[C@H](CCCNC(=N)N)NC(=O)[C@H](CCC(N)=O)NC(=O)[C@@H](NC(=O)[C@H](C)NC(=O)[C@@H]1CSSC[C@H](NC(=O)[C@@H](N)CCCCNC(=O)COCCOCCNC(=O)CCCCCCCCCCCCCCCCCCC(=O)O)C(=O)N[C@@H](CC(N)=O)C(=O)N[C@@H]([C@@H](C)O)C(=O)N[C@@H](C)C(=O)N[C@@H]([C@@H](C)O)C(=O)N1)[C@@H](C)O)C(=O)N1CCC[C@H]1C(=O)N[C@@H](CO)C(=O)N[C@@H](CO)C(=O)N[C@H](C(=O)N[C@@H](CC(N)=O)C(=O)N[C@H](C(=O)NCC(=O)N[C@@H](Cc1c[nH]cn1)C(=O)N[C@@H](CC(N)=O)C(=O)N[C@H](C(=O)N[C@@H](Cc1ccc(O)cc1)C(N)=O)[C@@H](C)O)C(C)C)[C@@H](C)O, Synthetic acylated analogue of human amylin; also called compound 91) [N^ε1-[2-[2-[2-(19-carboxynonadecanoylamino)ethoxy]ethoxy]acetyl]-[Arg17,Pro21,Pro27,His34]-h-amylin]
				0.355 nM	96.5	34.2 nM	60.8	K([γGlu-C20 diacid])CNTATCATQRLAHFLRHSSPNFGAIPSSTNVGSNTY-NH2 (disulfide 2-7; N-terminus assumed; SMILES CC[C@H](C)[C@H](NC(=O)[C@H](C)NC(=O)CNC(=O)[C@H](Cc1ccccc1)NC(=O)[C@H](CC(N)=O)NC(=O)[C@@H]1CCCN1C(=O)[C@H](CO)NC(=O)[C@H](CO)NC(=O)[C@H](Cc1c[nH]cn1)NC(=O)[C@H](CCCNC(=N)N)NC(=O)[C@H](CC(C)C)NC(=O)[C@H](Cc1ccccc1)NC(=O)[C@H](Cc1c[nH]cn1)NC(=O)[C@H](C)NC(=O)[C@H](CC(C)C)NC(=O)[C@H](CCCNC(=N)N)NC(=O)[C@H](CCC(N)=O)NC(=O)[C@@H](NC(=O)[C@H](C)NC(=O)[C@@H]1CSSC[C@H](NC(=O)[C@@H](N)CCCCNC(=O)CC[C@H](NC(=O)CCCCCCCCCCCCCCCCCCC(=O)O)C(=O)O)C(=O)N[C@@H](CC(N)=O)C(=O)N[C@@H]([C@@H](C)O)C(=O)N[C@@H](C)C(=O)N[C@@H]([C@@H](C)O)C(=O)N1)[C@@H](C)O)C(=O)N1CCC[C@H]1C(=O)N[C@@H](CO)C(=O)N[C@@H](CO)C(=O)N[C@H](C(=O)N[C@@H](CC(N)=O)C(=O)N[C@H](C(=O)NCC(=O)N[C@@H](CO)C(=O)N[C@@H](CC(N)=O)C(=O)N[C@H](C(=O)N[C@@H](Cc1ccc(O)cc1)C(N)=O)[C@@H](C)O)C(C)C)[C@@H](C)O, synthetic analogue of human amylin; also called compound 70) [N^ε1-[(4S)-4-carboxy-4-(19-carboxynonadecanoylamino)butanoyl]-[His14,Arg17,Pro21,Pro27]-h-amylin]
